Numbering of substitutions follows the chain as printed. In names and notes the source's numbering stands. Like-named read-outs stand apart in the source and are kept apart here.
B1: Cdc12-His6 (natural protein)
chain: MSAATATAAPVPPPVGISNLPNQRYKIVNEEGGTFTVMLCGESGLGKTTFINTLFQTVLKRADGQQHRQEPIRKTVEIDITRALLEEKHFELRVNVIDTPGFGDNVNNNKAWQPLVDFIDDQHDSYMRQEQQPYRTKKFDLRVHAVLYFIRPTGHGLKPIDIETMKRLSTRANLIPVIAKADTLTAQELQQFKSRIRQVIEAQEIRIFTPPLDADSKEDAKSGSNPDSAAVEHARQLIEAMPFAIVGSEKKFDNGQGTQVVARKYPWGLVEIENDSHCDFRKLRALLLRTYLLDLISTTQEMHYETYRRLRLEGHENTGEGNEDFTLPAIAPARKLSHNPRYKEEENALKKYFTDQVKAEEQRFRQWEQNIVNERIRLNGDLEEIQGKVKKLEEQVKSLQVKKSHLK
B2: GST-Cdc10 (natural protein)
chain: MDPLSSVQPASYVGFDTITNQIEHRLLKKGFQFNIMVVGQSGLGKSTLINTLFASHLIDSATGDDISALPVTKTTEMKISTHTLVEDRVRLNINVIDTPGFGDFIDNSKAWEPIVKYIKEQHSQYLRKELTAQRERFITDTRVHAILYFLQPNGKELSRLDVEALKRLTEIANVIPVIGKSDTLTLDERTEFRELIQNEFEKYNFKIYPYDSEELTDEELELNRSVRSIIPFAVVGSENEIEINGETFRGRKTRWSAINVEDINQCDFVYLREFLIRTHLQDLIETTSYIHYEGFRARQLIALKENANSRSSAHMSSNAIQR
B3: Cdc12(T48N)-His6 (natural protein)
chain: B1 chain with T48N
B4: His6-Cdc3 (natural protein)
chain: MSLKEEQVSIKQDPEQEERQHDQFNDVQIKQESQDHDGVDSQYTNGTQNDDSERFEAAESDVKVEPGLGMGITSSQSEKGQVLPDQPEIKFIRRQINGYVGFANLPKQWHRRSIKNGFSFNLLCVGPDGIGKTTLMKTLFNNDDIEANLVKDYEEELANDQEEEEGQGEGHENQSQEQRHKVKIKSYESVIEENGVKLNLNVIDTEGFGDFLNNDQKSWDPIIKEIDSRFDQYLDAENKINRHSINDKRIHACLYFIEPTGHYLKPLDLKFMQSVYEKCNLIPVIAKSDILTDEEILSFKKTIMNQLIQSNIELFKPPIYSNDDAENSHLSERLFSSLPYAVIGSNDIVENYSGNQVRGRSYPWGVIEVDNDNHSDFNLLKNLLIKQFMEELKERTSKILYENYRSSKLAKLGIKQDNSVFKEFDPISKQQEEKTLHEAKLAKLEIEMKTVFQQKVSEKEKKLQKSETELFARHKEMKEKLTKQLKALEDKKKQLELSINSASPNVNHSPVPTKKKGFLR
B5: His6-Cdc10 (natural protein)
chain: B2 chain

Columns and labels:
Assay in all cases: pull-down
[1] = biological target: T1, GST-Cdc12 (S. cerevisiae, UniProt P32468 1-407)
T1 sequence: B1 chain

[2] = biological target: T2, GST-HSL1(833-1518) (S. cerevisiae, UniProt P34244 833-1518)
T2 sequence: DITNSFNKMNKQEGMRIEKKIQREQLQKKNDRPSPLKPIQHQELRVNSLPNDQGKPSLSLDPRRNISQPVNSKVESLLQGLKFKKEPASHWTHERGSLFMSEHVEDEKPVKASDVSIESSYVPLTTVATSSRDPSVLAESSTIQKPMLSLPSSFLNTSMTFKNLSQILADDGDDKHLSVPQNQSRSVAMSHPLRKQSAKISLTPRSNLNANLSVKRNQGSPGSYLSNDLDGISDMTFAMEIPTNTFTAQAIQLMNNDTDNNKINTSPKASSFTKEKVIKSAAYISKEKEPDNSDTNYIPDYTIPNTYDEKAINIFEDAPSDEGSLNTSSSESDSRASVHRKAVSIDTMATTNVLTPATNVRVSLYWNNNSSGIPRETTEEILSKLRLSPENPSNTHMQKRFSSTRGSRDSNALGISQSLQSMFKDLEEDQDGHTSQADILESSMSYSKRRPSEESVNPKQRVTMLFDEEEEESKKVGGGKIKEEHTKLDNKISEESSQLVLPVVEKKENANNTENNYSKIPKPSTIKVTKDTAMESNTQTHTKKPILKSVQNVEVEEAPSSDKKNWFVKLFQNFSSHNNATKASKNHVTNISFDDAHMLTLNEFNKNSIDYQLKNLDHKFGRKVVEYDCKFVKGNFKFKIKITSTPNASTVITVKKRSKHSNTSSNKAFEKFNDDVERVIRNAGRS

[3] = biological target: T3, GST-Cdc3 (S. cerevisiae, UniProt P32457 1-520)
T3 sequence: B4 chain

[4] = biological target: T4, GST-Cdc11 (S. cerevisiae, UniProt P32458 1-415)
T4 sequence: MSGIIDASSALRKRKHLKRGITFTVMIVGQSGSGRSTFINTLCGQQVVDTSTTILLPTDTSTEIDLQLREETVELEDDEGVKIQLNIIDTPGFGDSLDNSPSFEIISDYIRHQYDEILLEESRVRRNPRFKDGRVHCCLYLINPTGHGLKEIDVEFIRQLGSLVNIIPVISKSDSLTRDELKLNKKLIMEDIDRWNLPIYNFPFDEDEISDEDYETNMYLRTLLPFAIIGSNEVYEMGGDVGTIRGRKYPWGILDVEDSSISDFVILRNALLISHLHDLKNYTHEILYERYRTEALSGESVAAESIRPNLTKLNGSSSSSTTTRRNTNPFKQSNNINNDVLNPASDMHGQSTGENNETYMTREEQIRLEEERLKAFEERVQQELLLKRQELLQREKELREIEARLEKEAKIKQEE

[5] = biological target: B3
[6] = biological target: B1
[7] = biological target: T3, GST-Cdc3; remark: listed apart in the source
[8] = biological target: T4, GST-Cdc11; remark: listed apart in the source
[9] = biological target: T5, GST-Cla4 (S. cerevisiae, UniProt P48562 1-842)
T5 sequence: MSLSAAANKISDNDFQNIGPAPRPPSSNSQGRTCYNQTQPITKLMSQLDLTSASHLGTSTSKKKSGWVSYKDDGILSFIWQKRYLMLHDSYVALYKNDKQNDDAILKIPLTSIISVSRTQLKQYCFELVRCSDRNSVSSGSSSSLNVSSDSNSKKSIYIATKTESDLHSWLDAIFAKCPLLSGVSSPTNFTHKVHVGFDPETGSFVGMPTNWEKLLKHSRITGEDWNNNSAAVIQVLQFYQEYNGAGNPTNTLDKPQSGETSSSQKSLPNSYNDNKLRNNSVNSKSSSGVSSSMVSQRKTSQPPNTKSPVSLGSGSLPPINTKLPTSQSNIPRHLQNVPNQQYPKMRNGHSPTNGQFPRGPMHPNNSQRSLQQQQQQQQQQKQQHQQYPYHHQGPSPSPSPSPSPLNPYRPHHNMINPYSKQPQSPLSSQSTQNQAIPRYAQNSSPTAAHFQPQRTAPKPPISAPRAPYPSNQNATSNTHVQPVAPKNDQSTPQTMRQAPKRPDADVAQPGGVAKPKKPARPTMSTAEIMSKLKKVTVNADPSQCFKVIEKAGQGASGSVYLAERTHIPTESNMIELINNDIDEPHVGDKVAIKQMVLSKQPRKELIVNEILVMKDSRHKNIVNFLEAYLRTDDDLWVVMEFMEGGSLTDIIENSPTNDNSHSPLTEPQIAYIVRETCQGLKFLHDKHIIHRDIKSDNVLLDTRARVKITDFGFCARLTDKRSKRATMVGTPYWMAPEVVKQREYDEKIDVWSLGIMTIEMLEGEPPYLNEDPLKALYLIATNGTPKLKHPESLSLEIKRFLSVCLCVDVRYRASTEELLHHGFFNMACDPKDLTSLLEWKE

Binder | binding result [1] | binding result [2] | binding result [9] | other results
B1 | binds | binds |  | binding result [3]: binds; binding result [4]: binds
B2 |  |  |  | binding result [5]: binds; binding result [6]: binds
B3 | binds | binds |  | binding result [7]: binds; binding result [8]: binds
B4 |  |  | binds | 
B5 |  |  | binds | 
